Assay results as given in the supplement of paper PMC5998384.

What was measured:
[1] = system: HeLa Kyoto; assay: solubility in G1/S (NP-40 vs SDS abundance) (log2 ratio); higher = more soluble; conditions: cell cycle stage: G1/S
[2] = system: HeLa Kyoto; assay: solubility change mitosis vs G1/S (difference of NP-40 vs SDS log2 ratios) (log2 ratio difference); higher = more soluble in mitosis
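Throughout, for solubility change mitosis vs G1/S (difference of NP-40 vs SDS log2 ratios): synchronized HeLa Kyoto cells (double thymidine block for G1/S, nocodazole release for mitosis), protein amounts in NP-40 versus SDS lysates quantified by mass spectrometry, three biological replicates.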
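Throughout, for solubility in G1/S (NP-40 vs SDS abundance): HeLa Kyoto cells arrested at G1/S by double thymidine block, proteins quantified by TMT10plex mass spectrometry in mild NP-40 versus SDS extracts, three biological replicates.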

Row | Sequence | solubility in G1/S (log2) [1] | solubility change mitosis (log2) [2]
1 | MRSFLQQDVNKTKSRLNVLNGLANNMDDLKINTDITGAKEELLDDNNFISDKESGVHKPKDCQTSFQKNNTLTLPEELSKDKSENALSGGQSSLFIHAGAPTVSSENFILPKGAAVNGPVSHSSLTKTSNMNKGSVSLTTGQPVDQPTTESCSTLKVAADLQLSTPQKASQHQVLFLLSDVAHAKNPTHSNKKLPTSASVGCDIQNSVGSNIKSDGTLINQVEVGEDGEDLLVKDDCVNTVTGISSGTDGFRSENDTNWDPQKEFIQFLMTNEETVDKAPPHSKIGLEKKRKRKMDVSKITRYTEDCFSDSNCVPNKSKMQEVDFLEQNEELQAVDSQKYALSKVKPESTDEDLESVDAFQHLIYNPDKCGEESSPVHTSTFLSNTLKKKCEESDSESPATFSTEEPSFYPCTKCNVNFREKKHLHRHMMYHLDGNSHFRHLNVPRPYACRECGRTFRDRNSLLKHMIIHQERRQKLMEEIRELKELQDEGRSARLQCPQCVFGTNCPKTFVQHAKTHEKDKRYYCCEECNFMAVTENELECHRGIAHGAVVKCPMVTSDIAQRKTQKKTFMKDSVVGSSKKSATYICKMCPFTTSAKSVLKKHTEYLHSSSCVDSFGSPLGLDKRKNDILEEPVDSDSTKTLTKQQSTTFPKNSALKQDVKRTFGSTSQSSSFSKIHKRPHRIQKARKSIAQSGVNMCNQNSSPHKNVTIKSSVDQKPKYFHQAAKEKSNAKANSHYLYRHKYENYRMIKKSGESYPVHFKKEEASSLNSLHLFSSSSNSHNNFISDPHKPDAKRPESFKDHRRVAVKRVIKESKKESSVGGEDLDSYPDFLHKMTVVVLQKLNSAEKKDSYETEDESSWDNVELGDYTTQAIEDETYSDINQEHVNLFPLFKSKVEGQEPGENATLSYDQNDGFYFEYYEDTGSNNFLHEIHDPQHLETADASLSKHSSVFHWTDLSLEKKSCPYCPATFETGVGLSNHVRGHLHRAGLSYEARHVVSPEQIATSDKMQHFKRTGTGTPVKRVRKAIEKSETTSEHTCQLCGGWFDTKIGLSNHVRGHLKRLGKTKWDAHKSPICVLNEMMQNEEKYEKILKALNSRRIIPRPFVAQKLASSDDFISQNVIPLEAYRNGLKTEALSVSASEEEGLNFLNEYDETKPELPSGKKNQSLTLIELLKNKRMGEERNSAISPQKIHNQTARKRFVQKCVLPLNEDSPLMYQPQKMDLTMHSALDCKQKKSRSRSGSKKKMLTLPHGADEVYILRCRFCGLVFRGPLSVQEDWIKHLQRHIVNANLPRTGAGMVEVTSLLKKPASITETSFSLLMAEAAS [ZNF644] | -0.00511 | 0.321
2 | MRVDSSADPTMSQEQGPGSSTPPSSPTLLDALLQNLYDFGGTEGETEQKKIIKKRENKKRDVMASAALAAEPSPLPGSLIRGQRKSASSFFKELREERHCAPSGTPTGPEILAAAVPPSSLKNNREQVEVVEFHSNKKRKLTPDHNKNTKQANPSVLERDVDTQEFNLEKARLEVHRFGITGYGKGKERILEQERAIMLGAKPPKKSYVNYKVLQEQIKEKKAAKEEEKRLAQETDIFKKKKRKGQEDRKSKKKSAPSILSNGRIGQVGKFKNGTLILSPVDIKKINSSRVAK [C1ORF131] | -1.24 | 0.969
3 | MSAALLRRGLELLAASEAPRDPPGQAKPRGAPVKRPRKTKAIQAQKLRNSAKGKVPKSALDEYRKRECRDHLRVNLKFLTRTRSTVAESVSQQILRQNRGRKACDRPVAKTKKKKAEGTVFTEEDFQKFQQEYFGS [RPS19BP1] | -0.897 | 0.671
4 | MSDIVEKTLTALPGLFLQNQPGGGPAAAKASFSSRLGSLVRGITALTSKHEEEKLIQQELSSLKATVSAPTTTLKMMKECMVRLIYCEMLGYDASFGYIHAIKLAQQGNLLEKRVGYLAVSLFLHESHELLLLLVNTVVKDLQSTNLVEVCMALTVVSQIFPCEMIPAVLPLIEDKLQHSKEIVRRKAVLALYKFHLIAPNQVQHIHIKFRKALCDRDVGVMAASLHIYLRMIKENSSGYKDLTGSFVTILKQVVGGKLPVEFNYHSVPAPWLQIQLLRILGLLGKDDQRTSELMYDVLDESLRRAELNHNVTYAILFECVHTVYSIYPKSELLEKAAKCIGKFVLSPKINLKYLGLKALTYVIQQDPTLALQHQMTIIECLDHPDPIIKRETLELLYRITNAQNITVIVQKMLEYLHQSKEEYVIVNLVGKIAELAEKYAPDNAWFIQTMNAVFSVGGDVMHPDIPNNFLRLLAEGFDDETEDQQLRLYAVQSYLTLLDMENVFYPQRFLQVMSWVLGEYSYLLDKETPEEVIAKLYKLLMNDSVSSETKAWLIAAVTKLTSQAHSSNTVERLIHEFTISLDTCMRQHAFELKHLHENVELMKSLLPVDRSCEDLVVDASLSFLDGFVAEGLSQGAAPYKPPHQRQEEKLSQEKVLNFEPYGLSFSSSGFTGRQSPAGISLGSDVSGNSAETGLKETNSLKLEGIKKLWGKEGYLPKKESKTGDESGALPVPQESIMENVDQAITKKDQSQVLTQSKEEKEKQLLASSLFVGLGSESTINLLGKADTVSHKFRRKSKVKEAKSGETTSTHNMTCSSFSSLSNVAYEDDYYSNTLHDTGDKELKKFSLTSELLDSESLTELPLVEKFSYCSLSTPSLFANNNMEIFHPPQSTAASVAKESSLASSFLEETTEYIHSNAMEVCNNETISVSSYKIWKDDCLLMVWSVTNKSGLELKSADLEIFPAENFKVTEQPGCCLPVMEAESTKSFQYSVQIEKPFTEGNLTGFISYHMMDTHSAQLEFSVNLSLLDFIRPLKISSDDFGKLWLSFANDVKQNVKMSESQAALPSALKTLQQKLRLHIIEIIGNEGLLACQLLPSIPCLLHCRVHADVLALWFRSSCSTLPDYLLYQCQKVMEGS [AP4E1] | -0.402 | -0.0567
5 | MSEESDSLRTSPSVASLSENELPPPPEPPGYVCSLTEDLVTKAREELQEKPEWRLRDVQALRDMVRKEYPNLSTSLDDAFLLRFLRARKFDYDRALQLLVNYHSCRRSWPEVFNNLKPSALKDVLASGFLTVLPHTDPRGCHVVCIRPDRWIPSNYPITENIRAIYLTLEKLIQSEETQVNGIVILADYKGVSLSKASHFGPFIAKKVIGILQDGFPIRIKAVHVVNEPRIFKGIFAIIKPFLKEKIANRFFLHGSDLNSLHTNLPRSILPKEYGGTAGELDTATWNAVLLASEDDFVKEFCQPVPACDSILGQTLLPEGLTSDAQCDDSLRAVKSQLYSCY [TTPAL] | 0.206 | -0.0202
6 | MSFAESGWRSALRRRGPGTPGPVARPSYSSFTQGDSWGEGEVDEEEGCDQVARDLRAEFSAGAWSEPRKRSVLPPDGNGSPVLPDKRNGIFPAAAGSRAQPRRWPVQVLSILCSLLFAILLAFLLAIAYLIVKELHAENLKNEDDVDTGLLGFWTLLIISLTAGFSCCSFSWTVTYFDSFEPGMFPPTPLSPARFKKLTGHSFHMGYSMAILNGIVAALTVAWCLM [ARL6IP6] | -0.241 | 0.698
7 | MSGEPELIELRELAPAGRAGKGRTRLERANALRIARGTACNPTRQLVPGRGHRFQPAGPATHTWCDLCGDFIWGVVRKGLQCARLSADCKFTCHYRCRALVCLDCCGPRDLGWEPAVERDTNVDEPVEWETPDLSQAEIEQKIKEYNAQINSNLFMSLNKDGSYTGFIKVQLKLVRPVSVPSSKKPPSLQDARRGPGRGTSVRRRTSFYLPKDAVKHLHVLSRTRAREVIEALLRKFLVVDDPRKFALFERAERHGQVYLRKLLDDEQPLRLRLLAGPSDKALSFVLKENDSGEVNWDAFSMPELHNFLRILQREEEEHLRQILQKYSYCRQKIQEALHACPLG [RASSF1] | 0.0141 | 0.0429
8 | MSGGEVVCSGWLRKSPPEKKLKRYAWKRRWFVLRSGRLTGDPDVLEYYKNDHAKKPIRIIDLNLCQQVDAGLTFNKKEFENSYIFDINTIDRIFYLVADSEEEMNKWVRCICDICGFNPTEEDPVKPPGSSLQAPADLPLAINTAPPSTQADSSSATLPPPYQLINVPPHLETLGIQEDPQDYLLLINCQSKKPEPTRTHADSAKSTSSETDCNDNVPSHKNPASSQSKHGMNGFFQQQMIYDSPPSRAPSASVDSSLYNLPRSYSHDVLPKVSPSSTEADGELYVFNTPSGTSSVETQMRHVSISYDIPPTPGNTYQIPRTFPEGTLGQTSKLDTIPDIPPPRPPKPHPAHDRSPVETCSIPRTASDTDSSYCIPTAGMSPSRSNTISTVDLNKLRKDASSQDCYDIPRAFPSDRSSSLEGFHNHFKVKNVLTVGSVSSEELDENYVPMNPNSPPRQHSSSFTEPIQEANYVPMTPGTFDFSSFGMQVPPPAHMGFRSSPKTPPRRPVPVADCEPPPVDRNLKPDRKVKPAPLEIKPLPEWEELQAPVRSPITRSFARDSSRFPMSPRPDSVHSTTSSSDSHDSEENYVPMNPNLSSEDPNLFGSNSLDGGSSPMIKPKGDKQVEYLDLDLDSGKSTPPRKQKSSGSGSSVADERVDYVVVDQQKTLALKSTREAWTDGRQSTESETPAKSVK [GAB1] | 0.368 | -0.296
